This is an account of results in patent US20090018093.

The test system of this data set is Immunoglobulin E (IgE) (Homo sapiens), P01854-1. The data set is described as follows: filter.
The mark [1] stands for this setting: 2'-OMe/2'-deoxy mix, 3:21 pair changed, DPBS Mg/Ca, 0.1 mg/mL BSA, RT.

Like-named read-outs stand apart in the source and are kept apart here.

Chain of Immunoglobulin E (IgE) (Homo sapiens), P01854-1 (P01854 other isoform, or with tags, fused parts or gaps): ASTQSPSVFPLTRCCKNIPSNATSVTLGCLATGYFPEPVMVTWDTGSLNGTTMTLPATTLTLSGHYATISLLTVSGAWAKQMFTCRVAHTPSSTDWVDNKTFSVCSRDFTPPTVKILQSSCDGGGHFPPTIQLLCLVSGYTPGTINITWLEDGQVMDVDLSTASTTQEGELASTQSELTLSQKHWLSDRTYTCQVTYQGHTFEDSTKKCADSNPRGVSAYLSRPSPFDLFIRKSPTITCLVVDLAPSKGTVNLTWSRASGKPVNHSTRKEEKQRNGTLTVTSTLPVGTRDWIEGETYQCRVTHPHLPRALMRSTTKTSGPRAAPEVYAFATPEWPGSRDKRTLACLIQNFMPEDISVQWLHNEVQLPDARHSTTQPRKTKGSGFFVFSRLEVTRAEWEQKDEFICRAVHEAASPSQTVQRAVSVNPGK

“GGGAGAGGAGAGAACGUUCUACACUCUGGGGACCCGUGGGGGAGUGCAGCAACGCUGUCGAUCGAUCGAUCGAUG [ARC2005]”: the Kd (commonly a measure of binding affinity in units of concentration) (dRmY: 2'-deoxy A,G, 2'-OMe C,U, error 3, dPBS Ca/Mg + BSA, RT) was determined as 5 nM.
Consider “AGCCUGGGNGACCCAUNNNGNNGNNGNCNUNN [ARC3275]”, for which the Kd (ARC2342 chemistry with 2'-OMe G8,G9,I16, 3' idT, DPBS Mg/Ca, BSA, RT) stood at 0.67 nM.
Take “GGGGCUACTTTATCCGTTCCTCCTAGTGGGUAGCCCC [ARC1303]”: under “2'-OMe stem block as printed in Table 18, 3' idT [2'-OMe: stem block (exact positions not given in the material), 38 = 3' inverted dT], DPBS Mg/Ca, BSA”, the Kd was found to be 1.3 nM.
“GGGGCTACTTTATCCGTTCCTCCTAGTGGGTAGCCCC [ARC1414]” showed an equilibrium dissociation constant (Kd) (2'-OMe at 1-4,7,33-37, PS 31-32, 3' idT [2'-OMe at 1-4,7,33-37, PS 31-32, 3' idT cap after 37 (left out)], DPBS Mg/Ca, BSA) of 2.9 nM.
As to AGCCUGGGGACCCAUGGGGGGCU [ARC1250], the Kd (2'-OMe C,U and A1, other A,G deoxy, 3' idT [2'-OMe: 1,3,4,5,11,12,13,15,22,23, 2'-deoxy: 2,6,7,8,9,10,14,16,17,18,19,20,21, 24 = 3' inverted dT], dPBS Ca/Mg + BSA, RT) is 11 nM.
The sequence AGUCUGGGGACCCAUGGGGGACU [ARC1246] returned a Kd under setting [1] of 34 nM.
Regarding AGCCUGGGGACCCAUGGGGGGCU [ARC1564], the Kd (ARC1335 chemistry with dI18, 3' idT [18=dI (G parent), 24=3' inverted dT], DPBS Mg/Ca, 0.1 mg/mL BSA, RT) was 0.5 nM.
AGCCUGGGGACCCAUGGGGGGCU [ARC1262]: the Kd (2'-OMe C,U and G20, other A,G deoxy, 3' idT [2'-OMe: 3,4,5,11,12,13,15,20,22,23, 2'-deoxy: 1,2,6,7,8,9,10,14,16,17,18,19,21, 24 = 3' inverted dT], dPBS Ca/Mg + BSA, RT) amounted to 32 nM.
“GGGGCTACTTTATCCGTTCCTCCTAGTGGGTAGCCCCT [ARC1300]”: where the note is “2'-OMe at 36, 3' idT [2'-OMe: 36, 38 = 3' inverted dT], DPBS Mg/Ca, BSA”, the Kd is 0.7 nM.
Under “2'-OMe at 35, 3' idT [2'-OMe: 35, 38 = 3' inverted dT], DPBS Mg/Ca, BSA”, “GGGGCTACTTTATCCGTTCCTCCTAGTGGGTAGCCCCT [ARC1299]” came in with a Kd of 0.5 nM.
Turning to “GGGGCTACUTTATCCGTTCCTCCTAGTGGGTAGCCCC [ARC1273]”, the Kd (DNA with 2'-OMe U9, 3' idT [2'-OMe U9, 3' inverted dT38], dPBS Ca/Mg + BSA) was determined as 3 nM.
In the case of AGCCUGGGGACCCAUGGGGGGCU [ARC912], under “dRmY, 7-deaza-dG at G21 [7-deaza-dG: 21, 2'-OMe: 3-5,11-13,15,22,23, deoxy: all A,G], dPBS Ca/Mg + BSA, RT”, the Kd stood at 9 nM.
Turning to “GGGGCUACTTTATCCGTTCCTCCTAGTGGGTAGCCCC [ARC1388]”, the dissociation constant (Kd) (2'-OMe at 1-8,33-37, 3' idT [2'-OMe: 1-8,33-37, 38 = 3' inverted dT], DPBS Mg/Ca, BSA) is 4.4 nM.
Consider AGCCUGGGGACCCAUGGGGGGCU [ARC902], for which the Kd (dRmY (2'-OMe C,U), 7-deaza-dG2 [7-deaza-dG at 2, 2'-OMe C3,C4,U5,C11,C12,C13,U15,C22,U23, A,G 2'-deoxy], DPBS Mg/Ca, 0.1 mg/mL BSA, RT) was found to be 9 nM.
Take AGCCUGGGGACCCAUGGGGGGCU [ARC903]: the Kd (dRmY (2'-OMe C,U), 7-deaza-dG6 [7-deaza-dG at 6, 2'-OMe C3,C4,U5,C11,C12,C13,U15,C22,U23, A,G 2'-deoxy], DPBS Mg/Ca, 0.1 mg/mL BSA, RT) worked out at 14 nM.
Sequence AGCCUGGGGACCCAUGGGGGGCU [ARC1255] gave a dissociation constant Kd (2'-OMe G9 and all C,U, rest 2'-deoxy, 3' idT [2'-OMe at 3,4,5,9,11,12,13,15,22,23, 3'-idT at 24], DPBS Mg/Ca, 0.1 mg/mL BSA, RT) of 8 nM.
The sequence AGCCUGGGNGACCCAUNNNGNNGNNGCUN [ARC3268] registered a dissociation constant (Kd) (ARC1666 chemistry with 2'-OMe G8,G9,I16, 3' idT, DPBS Mg/Ca, BSA, RT) of 0.6 nM.
With AGCCUGGGGACCCAUGGGGGGCU [ARC1562], the Kd (ARC1335 chemistry with dI16, G17 deoxy as printed, 3' idT [16=dI (G parent), 17=deoxy G, 24=3' inverted dT], DPBS Mg/Ca, 0.1 mg/mL BSA, RT) amounted to 0.6 nM.
For “AGCCUGGGNGACCCAUNNNGNNGNNGNCNUN [ARC2341]”, the Kd (ARC1666 chemistry + PS 21-22,22-23, 3' idT, DPBS Mg/Ca, BSA, RT) was 0.05 nM.
The sequence “GGGGCTACTTTATCCGTTCCTCCTAGTGGGTAGCCCCT [ARC1301]” registered a Kd (2'-OMe at 37, 3' idT [2'-OMe: 37, 38 = 3' inverted dT], DPBS Mg/Ca, BSA) of 0.5 nM.
For “GGGGCTACTTTATCCGTTCCTCCTAGTGGGTAGCCCC [ARC1411]”, the Kd (2'-OMe at 1-4,7,33-37, PS 28-29, 3' idT [2'-OMe at 1-4,7,33-37, PS 28-29, 3' idT cap after 37 (left out)], DPBS Mg/Ca, BSA) is 5.4 nM.
On to “GGGAGAGGAGAGAACGUUCUACCAACGGCAUCCUGGGCCCCACAGGGGAUGUCGCUGUCGAUCGAUCGAUCGAUG [ARC2002]”, for which the Kd (dRmY: 2'-deoxy A,G, 2'-OMe C,U, error 6, dPBS Ca/Mg + BSA, RT) turned out to be 8 nM.
For AGACUGGGGACCCAUGGGGGUCU [ARC1248], under setting [1], the Kd stood at 38 nM.
As to AGCCUGGGGACCCAUGGGGGGCU [ARC905], the Kd (dRmY (2'-OMe C,U), 7-deaza-dG8 [7-deaza-dG at 8, 2'-OMe C3,C4,U5,C11,C12,C13,U15,C22,U23, A,G 2'-deoxy], DPBS Mg/Ca, 0.1 mg/mL BSA, RT) stood at 9 nM.
Turning to “GGGGCTACTTTATCCGTTCCTCCTAGTGGGTAGCCCC [ARC1413]”, where the note is “2'-OMe at 1-4,7,33-37, PS 30-31, 3' idT [2'-OMe at 1-4,7,33-37, PS 30-31, 3' idT cap after 37 (left out)], DPBS Mg/Ca, BSA”, the Kd stood at 3.3 nM.
For the sequence “AGCCUGGGNGACCCAUNNNGNNGNNGNCUN [ARC2340]”, the Kd (ARC1666 pattern plus PS between G21 and C22, 3' idT, dPBS Ca/Mg + BSA, RT) amounted to 0.08 nM.
As for “GGGGCUACTTUATCCGUUCCTCCTAGTGGGTAGCCCC [ARC1390]”, the Kd (2'-OMe at 1-8,11,17,18,20,33-37, 3' idT [2'-OMe: 1-8,11,17,18,20,33-37, 38 = 3' inverted dT], DPBS Mg/Ca, BSA) is 17 nM.
As for AGCCUGGGGACCCAUGGGGGGCU [ARC1260], the Kd (2'-OMe C,U and G18, other A,G deoxy, 3' idT [2'-OMe: 3,4,5,11,12,13,15,18,22,23, 2'-deoxy: 1,2,6,7,8,9,10,14,16,17,19,20,21, 24 = 3' inverted dT], dPBS Ca/Mg + BSA, RT) was determined as 102 nM.
In the case of “GGGAGAGGAGAGAACGUUCUACCCGCAGCAUAGCCUGGGGACCCAUGGGGGGCGCUGUCGAUCGAUCGAUCGAUG [ARC1994]”, under “dRmY: 2'-deoxy A,G, 2'-OMe C,U, error 5, dPBS Ca/Mg + BSA, RT, 109.7 nM with tRNA + ssDNA competitor (p280)”, the Kd was found to be 5 nM.
Consider “GGGGCTACTTTATCCGUTCCTCCTAGTGGGTAGCCCCN [ARC1281]”, for which, for the setting “2'-OMe U at 17, 3' idT, DPBS Mg/Ca, BSA”, the Kd was 0.1 nM.
“AGCCUGGNGNGACCCAUNNNGNNGNNGCUN [ARC2975]”: under “ARC1666 chemistry + PS 7-8, 3' idT, DPBS Mg/Ca, BSA, RT”, the Kd was 0.04 nM.
“GGGAGAGGAGAGAACGUUCUACAAGCAGUUCUGGGGACCCAUGGGGGAAGUGCGCUGUCGAUCGAUCGAUCGAUG [ARC1992]”: for the setting “dRmY: 2'-deoxy A,G, 2'-OMe C,U, error 8, dPBS Ca/Mg + BSA, RT”, the Kd worked out at 10 nM.
Consider “GGGGCTACTTTATCCGTTCCTCCTAGTGGGTAGCCCC [ARC1407]”, for which, where the note is “2'-OMe at 1-4,7,33-37, PS 24-25, 3' idT [2'-OMe at 1-4,7,33-37, PS 24-25, 3' idT cap after 37 (left out)], DPBS Mg/Ca, BSA”, the Kd is 1.8 nM.
Consider “GGGGCTACTTUATCCGTTCCTCCTAGTGGGTAGCCCC [ARC1275]”, for which, for the setting “2'-OMe U at 11, 3' idT [11 (2'-OMe U), 38 (3' inverted dT)], DPBS Mg/Ca, BSA”, the Kd was found to be 0.3 nM.
As to “GGGAGAGGAGAGAACGUUCUACGCAGCGCAUCUGGGGACCCAAGAGGGGAUUCGCUGUCGAUCGAUCGAUCGAUG [ARC2001]”, the Kd (dRmY: 2'-deoxy A,G, 2'-OMe C,U, error 0.1, dPBS Ca/Mg + BSA, RT) amounted to 18 nM.
With AGCCUGGGGACCCAUGGGGGGCU [ARC1334], the Kd (2'-OMe G2,G7,A10,A14,G17 and all C,U, rest 2'-deoxy, 3' idT [2'-OMe G2,C3,C4,U5,G7,A10,C11,C12,C13,A14,U15,G17,C22,U23, 3' inverted dT at 24], DPBS Mg/Ca, 0.1 mg/mL BSA, RT) came to 0.3 nM.
Take “GGGGCTACTTTATCCGTTCCTCCTAGTGGGTAGCCCCT [ARC656]”: where the note is “3' idT [38 = 3' inverted dT], dPBS Ca/Mg + BSA”, the Kd was found to be 0.2 nM.
In turn, “GGGGCTACTTTATCCGTTCCTCCTAGTGGGTAGCCCCT [ARC1387]” displayed a Kd (2'-OMe at 1-4,7,33-37, 3' idT [2'-OMe: 1-4,7,33-37, 38 = 3' inverted dT], DPBS Mg/Ca, BSA) of 2.4 nM.
“GGGGCTACTTTATCCGTTCCTCCTAGTGGGTAGCCCC [ARC1399]” came in with a Kd (2'-OMe at 1-4,7,33-37, PS 16-17, 3' idT [2'-OMe at 1-4,7,33-37, PS linkage 16-17 (internal N = PS, not a base), 3' inverted dT cap (terminal N, left out)], DPBS Mg/Ca, BSA) of 1.8 nM.
For the sequence “GGGGCTACTTTATCCGTTCCTCCTAGTGGGTAGCCCCT [ARC1278]”, the Kd (2'-OMe at 14, 3' idT [14 (2'-OMe C), 38 (3' inverted dT)], DPBS Mg/Ca, BSA) came to 2 nM.
Sequence “GGGGCTACTTTATCCGTTCCTCCTAGTGGGTAGCCCCN [ARC1284]” yielded an equilibrium dissociation constant (Kd) (2'-OMe at 20, 3' idT, DPBS Mg/Ca, BSA) of 0.1 nM.
Where the note is “2'-OMe at 16, 3' idT, DPBS Mg/Ca, BSA”, “GGGGCTACTTTATCCGTTCCTCCTAGTGGGTAGCCCCN [ARC1280]” displayed a Kd of 0.6 nM.
AGCCUGGGGACCCAUGGGGGGCU [ARC907] registered a Kd (dRmY (2'-OMe C,U), 7-deaza-dG16 [7-deaza-dG at 16, 2'-OMe C3,C4,U5,C11,C12,C13,U15,C22,U23, A,G 2'-deoxy], DPBS Mg/Ca, 0.1 mg/mL BSA, RT) of 22 nM.
“GGGGCTACTTTATCCGTTCCUCCTAGTGGGTAGCCCCN [ARC1285]”: the equilibrium dissociation constant (Kd) (2'-OMe U at 21, 3' idT, DPBS Mg/Ca, BSA) was 0.8 nM.
For the sequence “GGGCAACTTTATCCGTTCCTCTTAGTGGGTTGCCCC [DNA clone SEQ 139]”, the Kd is 0.4 nM.
